B1: PEX5 peptide 240-255 (Peroxisomal targeting signal 1 receptor), 16-mer library wild type / PEX14 Pex14 (PEX14 PEX14, residues 16-84) (parent)
chain 1: AEQWAAEFIQQQGTSD
chain 2: TPGSENVLPREPLIATAVKFLQNSRVRQSPLATRRAFLKKKGLTDEEIDMAFQQSGTAADEPSSLGPAT
B2: NCOA2 peptide 1073-1088 (Nuclear receptor coactivator 2), 16-mer library wild type / NSP3 UBl1 (ORF1ab Nsp3a Ub1, residues 819-925) (parent)
chain 1: PSDEGALLDQLYLALR
chain 2: APTKVTFGDDTVIEVQGYKSVNITFELDERIDKVLNEKCSAYTVELGTEVNEFACVVADAVIKTLQPVSELLTPLGIDLDEWSMATYYLFDESGEFKLASHMYCSFY

Variants of: B1
Assay: proteomic peptide phage display deep mutational scan (ProP-PD DMS): M13 P8 16-mer library selected against immobilised GST-tagged bait for four days (rounds), NGS of the eluted pools per day and pseudo-replica
Details: with PEX14 Pex14 (PEX14 PEX14, residues 16-84); bait immobilised on MaxiSorp plates (10 µg), library pre-cleared on GST, 2 h binding at 4 °C, five washes; one round per day, days 1-4; value from days 2 and 3; keep out of graded; scale: average fractional NGS count over selection days 2 and 3

Row | Variant | screen value
1 | chain 1 Q11T | 0
2 | chain 1 Q11D | 0
3 | chain 1 E7P | 0.000118
4 | chain 1 E7S | 0.000242
5 | chain 1 E7R | 0.000213
6 | chain 1 E7N | 0.000491
7 | chain 1 E7F | 0.00013
8 | chain 1 E7M | 0.000317
9 | chain 1 A1G | 0
10 | chain 1 A1L | 0.000125
11 | chain 1 A1F | 0.00013
12 | chain 1 T14Y | 0.000275
13 | chain 1 W4N | 0
14 | chain 1 W4Q | 0
15 | chain 1 W4P | 0
16 | chain 1 W4G | 6.63e-05
17 | chain 1 W4D | 0.000272
18 | chain 1 W4L | 9.31e-05
19 | chain 1 W4R | 0.000107
20 | chain 1 W4H | 5.68e-05
21 | chain 1 A5P | 0.000159
22 | chain 1 A5V | 0.000326
23 | chain 1 A5G | 0
24 | chain 1 E2Q | 5.27e-05

Row | Variant | screen value
25 | chain 1 A6H | 0.000232
26 | chain 1 A6Q | 0.000319
27 | chain 1 S15E | 0.000269
28 | chain 1 S15M | 0.000166
29 | chain 1 S15N | 0
30 | chain 1 S15F | 9.56e-05
31 | chain 1 Q10S | 0.00027
32 | chain 1 I9S | 0.00015
33 | chain 1 I9P | 0.000232
34 | chain 1 F8V | 0
35 | chain 1 F8K | 0
36 | chain 1 F8I | 9.8e-05
37 | chain 1 F8H | 0.000234
38 | chain 1 F8D | 0.000118
39 | chain 1 Q12N | 0.000241
40 | chain 1 Q12R | 0
41 | chain 1 Q12T | 0.000175
42 | chain 1 G13R | 0
43 | chain 1 G13N | 0.000117
44 | chain 1 G13L | 0
45 | chain 1 Q3Y | 9.56e-05
46 | chain 1 Q3F | 0
47 | chain 1 Q3E | 0.000171

Variants of: B2
Assay: not given
Details: with NSP3 UBl1 (ORF1ab Nsp3a Ub1, residues 819-925); bait immobilised on MaxiSorp plates (10 µg), library pre-cleared on GST, 2 h binding at 4 °C, five washes; one round per day, days 1-4; value from days 2 and 3; keep out of graded; scale: average fractional NGS count over selection days 2 and 3

Row | Variant | screen value
48 | chain 1 Y12V | 0
49 | chain 1 Y12S | 0
50 | chain 1 Y12A | 0
51 | chain 1 Y12F | 0.000754
52 | chain 1 L8Q | 0
53 | chain 1 L8N | 0
54 | chain 1 L8E | 0
55 | chain 1 L8K | 0
56 | chain 1 L8H | 0
57 | chain 1 L8A | 0
58 | chain 1 L8S | 0
59 | chain 1 L11V | 9.51e-06
60 | chain 1 L11D | 0
61 | chain 1 L11K | 0
62 | chain 1 L11I | 0.000119
63 | chain 1 L11A | 0
64 | chain 1 L11P | 0
65 | chain 1 L11R | 0

Row | Variant | screen value
66 | chain 1 L11Y | 0
67 | chain 1 D9E | 2.36e-05
68 | chain 1 D9S | 1.09e-05
69 | chain 1 D9T | 7.34e-06
70 | chain 1 D9P | 0.000642
71 | chain 1 L7S | 0
72 | chain 1 L7Q | 0
73 | chain 1 L7T | 0
74 | chain 1 E4F | 0
75 | chain 1 E4P | 0
76 | chain 1 Q10L | 0
77 | chain 1 Q10A | 0
78 | chain 1 Q10W | 0
79 | chain 1 Q10M | 3.19e-06
80 | chain 1 L15N | 0
81 | chain 1 L15I | 7.04e-06
82 | chain 1 A6M | 1.23e-05
83 | chain 1 A6R | 1.8e-05
